The record followed here is article PMC10728164.

This assay deals with cardiac troponin I (human (endogenous in heart tissue)) (UniProt P19429). The assay is described as follows: affinity purification with mass spectrometry; co-purification of the cTn subunits from human heart extract on the cTnI-binding peptide nanoparticles (NP-Pep); 25 mM Tris pH 7.5, 700 mM LiCl, 4 °C; native elution; subunits in the eluate analysed (Supplementary Fig. 2, 3a) and by top-down RPLC-MS/MS.
Sequence of UniProt P19429 (P19429 whole entry): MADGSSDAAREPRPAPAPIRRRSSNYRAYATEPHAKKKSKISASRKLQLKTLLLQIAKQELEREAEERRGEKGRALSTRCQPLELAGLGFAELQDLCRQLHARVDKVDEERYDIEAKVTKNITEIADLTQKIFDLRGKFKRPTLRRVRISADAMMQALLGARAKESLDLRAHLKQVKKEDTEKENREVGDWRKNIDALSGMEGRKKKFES

As to cardiac troponin T (natural protein), the stoichiometry N (as a rule, a count of units in the complex or per binding partner) stood at 1.
